# Biological target: T1, human insulin receptor isoform A (human, UniProt P06213-2 28-1370)
# T1 construct: whole, on cells; Tested as P1 membrane preparations of the over-expressing cells; also called hIR-A
# Assay: competitive radio-ligand binding, [125I]-insulin, membranes of 293EBNA cells over-expressing hIR-A
# Description: IC₅₀ values are determined from 4-parameter logistic non-linear regression analysis (XLFit version 4.0, IDBS). If necessary, curve top or bottom parameters are set to 100 or 0, respectively.
# Reported values for Kᵢ are shown as geometric mean±the standard error of the mean (SEM), with the number of replicate determinations indicated by “n” (Table 1).
row,Ki,Binder
1,10.1 nM,Example 3 fusion protein (SEQ ID NO:17) (Fc fusion) FVNQHLCGSHLVEALELVCGERGFHYGGGGGGSGGGGGIVEQCCTSICSLDQLENYCGGGGGQGGGGQGGGGQGGGGQGGPCPPCPAPEAAGGPSVFLFPPKPKDTLMISRTPEVTCVVVDVSQEDPEVQFNWYVDGVEVHNAKTKPREEQFNSTYRVVSVLTVLHQDWLNGKEYKCKVSNKGLPSSIEKTISKAKGQPREPQVYTLPPSQEEMTKNQVSLTCLVKGFYPSDIAVEWESNGQPENNYKTTPPVLDSDGSFFLYSRLTVDKSRWQEGNVFSCSVMHEALHNHYTQKSLSLSLG
2,35.6 nM,Example 5 fusion protein (SEQ ID NO:19) (Fc fusion) FVNQHLCGSHLVEALELVCGERGFHYGGGGGGSGGGGGIVEQCCTSTCSLDQLENYCGGGGGQGGGGQGGGGQGGGGQGGPCPPCPAPEAAGGPSVFLFPPKPKDTLMISRTPEVTCVVVDVSQEDPEVQFNWYVDGVEVHNAKTKPREEQFNSTYRVVSVLTVLHQDWLNGKEYKCKVSNKGLPSSIEKTISKAKGQPREPQVYTLPPSQEEMTKNQVSLTCLVKGFYPSDIAVEWESNGQPENNYKTTPPVLDSDGSFFLYSRLTVDKSRWQEGNVFSCSVMHEALHNHYTQKSLSLSLG
3,24.9 nM,Example 1 fusion protein (SEQ ID NO:12) (Fc fusion) FVNQHLCGSHLVEALELVCGERGFHYGGGGGGSGGGGGIVEQCCTSTCSLDQLENYCGGGGGQGGGGQGGGGQGGGGGECPPCPAPPVAGPSVFLFPPKPKDTLMISRTPEVTCVVVDVSHEDPEVQFNWYVDGVEVHNAKTKPREEQFNSTFRVVSVLTVVHQDWLNGKEYKCKVSNKGLPAPIEKTISKTKGQPREPQVYTLPPSREEMTKNQVSLTCLVKGFYPSDIAVEWESNGQPENNYKTTPPMLDSDGSFFLYSKLTVDKSRWQQGNVFSCSVMHEALHNHYTQKSLSLSPG
4,3.74 nM,Example 9 fusion protein (SEQ ID NO:23) (Fc fusion) FVNQHLCGSHLVEALELVCGERGFFYTEETGGGGGGGIVEQCCTSICSLYQLENYCGGGGGSGGGGSGGGGSGGGGSECPPCPAPPVAGPSVFLFPPKPKDTLMISRTPEVTCVVVDVSHEDPEVQFNWYVDGVEVHNAKTKPREEQFNSTFRVVSVLTVVHQDWLNGKEYKCKVSNKGLPAPIEKTISKTKGQPREPQVYTLPPSREEMTKNQVSLTCLVKGFYPSDIAVEWESNGQPENNYKTTPPMLDSDGSFFLYSKLTVDKSRWQQGNVFSCSVMHEALHNHYTQKSLSLSPG

# From US20250032588A1 (Eli Lilly, published 2025)
